Experimental findings from patent US20110047631A1, “HEAT SHOCK PROTEIN DEFICIENCIES AS MODEL SYSTEMS FOR BRAIN PATHOLOGY AND CANCER” (Medical College of Georgia Research Institute Inc., priority 2009, published 2011) are described below.

In the test the target is tau (total tau), endogenous mouse protein in brain extracts (mouse) (UniProt P10637). Nature of the test: immunoprecipitation with antibody to total tau, immunoblot for Chip; 8 months old against 6 weeks old mice.
tau (total tau), endogenous mouse protein in brain extracts (mouse), sequence (P10637 other isoform, or with tags, fused parts or gaps limits assumed): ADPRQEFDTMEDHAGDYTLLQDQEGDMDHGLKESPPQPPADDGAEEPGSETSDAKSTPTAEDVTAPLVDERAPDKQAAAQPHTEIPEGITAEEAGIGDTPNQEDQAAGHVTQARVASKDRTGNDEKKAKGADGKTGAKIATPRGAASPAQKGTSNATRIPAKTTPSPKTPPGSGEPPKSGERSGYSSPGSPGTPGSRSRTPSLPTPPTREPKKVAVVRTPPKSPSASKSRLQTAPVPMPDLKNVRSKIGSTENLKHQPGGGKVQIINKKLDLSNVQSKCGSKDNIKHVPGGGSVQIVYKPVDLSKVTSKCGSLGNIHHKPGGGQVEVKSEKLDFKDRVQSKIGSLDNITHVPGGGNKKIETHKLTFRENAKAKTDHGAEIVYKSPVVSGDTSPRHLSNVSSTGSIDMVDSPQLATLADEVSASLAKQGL

With “Chip (C-terminal Hsp70-interacting protein) ubiquitin ligase, endogenous mouse protein in brain extracts (from UniProt Q9WUD1 1-304) (enzyme)”, the fold amount of Chip co-immunoprecipitated with tau in aged brain extracts came to 2 fold.
